Source: paper PMC10509710
pKd: −log10 of the molar value. Each block holds one substance with its values, some of them ahead of it.

Legend:
[1] = target: human full-length scavenger receptor class B type 1 (SR-B1), glycosylated (human) (UniProt Q8WTV0); assay: flow cytometry on cells; Sf9 cells 72 h after baculovirus infection, 10 μg/ml DiI-HDL or DiI-oxLDL in ESF 921/0.5% BSA for 90 min at 4 °C; MFI compared with cells infected with empty vector
[2] = target: human full-length cluster of differentiation 36 (CD36), glycosylated (human) (UniProt P16671); assay: as above
Chain of human full-length cluster of differentiation 36 (CD36), glycosylated (human) (P16671 whole entry): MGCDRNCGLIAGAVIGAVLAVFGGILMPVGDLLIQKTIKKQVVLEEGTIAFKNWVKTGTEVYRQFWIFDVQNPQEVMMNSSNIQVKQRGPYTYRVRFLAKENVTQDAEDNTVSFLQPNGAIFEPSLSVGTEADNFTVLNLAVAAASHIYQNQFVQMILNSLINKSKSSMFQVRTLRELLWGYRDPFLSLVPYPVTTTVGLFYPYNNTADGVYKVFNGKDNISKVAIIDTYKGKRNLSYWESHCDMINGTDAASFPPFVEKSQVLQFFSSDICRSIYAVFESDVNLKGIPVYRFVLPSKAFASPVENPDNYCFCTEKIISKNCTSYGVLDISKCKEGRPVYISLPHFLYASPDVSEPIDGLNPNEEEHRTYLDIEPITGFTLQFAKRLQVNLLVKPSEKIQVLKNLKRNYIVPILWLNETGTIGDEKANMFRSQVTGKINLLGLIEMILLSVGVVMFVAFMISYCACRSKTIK

[3] = target: human full-length cluster of differentiation 36 (CD36), glycosylated (human) (UniProt P16671); assay: MST; Cy5-labeled receptor (RED-NHS, lysines) at constant 20 nM, ligand in a 16-point 1:1 dilution series; exchange buffer (50 mM Hepes pH 7.5, 150 mM NaCl, 0.025% LMNG, 0.005% CHS); 25 °C, 40% MST power; apparent Kd, one-site specific binding; molar values from average molecular weights (267.5 kDa HDL, 3500 kDa oxLDL)
[4] = target: human full-length scavenger receptor class B type 1 (SR-B1), glycosylated (human) (UniProt Q8WTV0); assay: as above

Chain of human high-density lipoprotein (HDL), holoparticle (P02647 whole entry, looked up): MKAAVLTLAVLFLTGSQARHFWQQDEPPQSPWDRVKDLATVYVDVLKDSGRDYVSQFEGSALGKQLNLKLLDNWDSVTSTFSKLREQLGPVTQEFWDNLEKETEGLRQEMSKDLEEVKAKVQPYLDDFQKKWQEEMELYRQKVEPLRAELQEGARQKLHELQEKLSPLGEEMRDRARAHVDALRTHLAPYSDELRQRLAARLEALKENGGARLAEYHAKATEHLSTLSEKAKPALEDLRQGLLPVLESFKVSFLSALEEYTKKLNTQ
Chain of human full-length scavenger receptor class B type 1 (SR-B1), glycosylated (human) (Q8WTV0 other isoform, or with tags, fused parts or gaps): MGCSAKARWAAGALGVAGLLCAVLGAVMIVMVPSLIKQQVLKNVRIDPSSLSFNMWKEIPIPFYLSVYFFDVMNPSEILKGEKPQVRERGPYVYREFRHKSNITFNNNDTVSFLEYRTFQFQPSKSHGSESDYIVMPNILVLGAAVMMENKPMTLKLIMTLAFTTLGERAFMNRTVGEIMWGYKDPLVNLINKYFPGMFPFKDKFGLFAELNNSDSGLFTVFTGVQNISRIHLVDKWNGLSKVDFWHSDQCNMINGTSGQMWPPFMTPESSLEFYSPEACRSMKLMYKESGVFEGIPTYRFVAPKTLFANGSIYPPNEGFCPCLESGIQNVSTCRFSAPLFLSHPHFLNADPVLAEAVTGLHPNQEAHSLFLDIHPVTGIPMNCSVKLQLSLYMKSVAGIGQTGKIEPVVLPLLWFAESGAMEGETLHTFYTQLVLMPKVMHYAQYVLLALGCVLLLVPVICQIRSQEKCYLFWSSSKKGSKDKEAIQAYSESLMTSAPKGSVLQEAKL
Chain of DiI-labeled high-density lipoprotein (DiI-HDL) (P02647 whole entry, looked up): as the sequence (P02647 whole entry, looked up) above

- percent increase of DiI-HDL binding (MFI at 4 °C) against empty vector [1]: 37%
Substance: DiI-labeled high-density lipoprotein (DiI-HDL) (from UniProt P02647 19-267) (complex)

- percent increase of DiI-oxLDL binding (MFI at 4 °C) against empty vector [2]: 21%
Substance: DiI-labeled oxidized low-density lipoprotein (DiI-oxLDL) (complex)

- pKd [3]: 6.91
- pKd [4]: 6.71
Substance: human high-density lipoprotein (HDL), holoparticle (from UniProt P02647 19-267) (complex)
